Experimental data taken from patent US20210253716A1 (Regeneron, published 2021).

T1: full length human ACVR1 (R206H) on HEK293/BRE-luc/hACVR1-R206H-clone H2 cells (human, UniProt Q04771 21-509)
T1 sequence: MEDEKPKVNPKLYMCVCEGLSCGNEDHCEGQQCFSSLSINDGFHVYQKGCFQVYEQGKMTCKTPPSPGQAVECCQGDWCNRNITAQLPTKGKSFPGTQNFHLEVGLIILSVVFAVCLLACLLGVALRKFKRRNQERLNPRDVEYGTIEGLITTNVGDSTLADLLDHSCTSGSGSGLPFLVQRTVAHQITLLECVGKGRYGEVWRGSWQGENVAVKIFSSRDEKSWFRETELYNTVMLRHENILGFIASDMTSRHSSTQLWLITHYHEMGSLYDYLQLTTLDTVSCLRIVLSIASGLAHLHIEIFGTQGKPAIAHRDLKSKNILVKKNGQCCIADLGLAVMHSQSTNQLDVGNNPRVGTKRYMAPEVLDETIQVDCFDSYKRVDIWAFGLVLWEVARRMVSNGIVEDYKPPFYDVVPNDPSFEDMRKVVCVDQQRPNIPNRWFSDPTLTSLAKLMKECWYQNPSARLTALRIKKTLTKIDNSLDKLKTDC

T2: human ACVR1 extracellular domain expressed with a C-terminal myc-myc-hexahistidine tag (human)
T2 construct: also called hACVR1-MMH
T2 chain: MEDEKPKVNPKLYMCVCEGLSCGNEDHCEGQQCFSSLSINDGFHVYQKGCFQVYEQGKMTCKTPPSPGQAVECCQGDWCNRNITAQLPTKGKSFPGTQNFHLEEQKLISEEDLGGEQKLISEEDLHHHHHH

T3: human ACVR1 extracellular domain expressed with a C-terminal mouse IgG2a Fc tag (human)
T3 construct: also called hACVR1-mFc
T3 chain: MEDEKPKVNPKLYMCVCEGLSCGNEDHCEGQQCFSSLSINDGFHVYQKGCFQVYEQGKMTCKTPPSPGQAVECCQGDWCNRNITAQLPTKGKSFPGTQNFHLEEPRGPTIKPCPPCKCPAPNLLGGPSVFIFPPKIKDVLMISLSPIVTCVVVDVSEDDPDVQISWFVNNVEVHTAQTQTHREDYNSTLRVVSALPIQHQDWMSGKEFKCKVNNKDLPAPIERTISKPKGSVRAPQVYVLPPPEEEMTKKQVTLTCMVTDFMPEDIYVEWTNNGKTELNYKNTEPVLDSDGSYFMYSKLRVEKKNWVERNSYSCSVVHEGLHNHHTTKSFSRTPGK

T4: mouse ACVR1 extracellular domain expressed with a C-terminal myc-myc-hexahistidine tag (mouse)
T4 construct: also called mACVR1-MMH; mACVR1-mmh
T4 chain: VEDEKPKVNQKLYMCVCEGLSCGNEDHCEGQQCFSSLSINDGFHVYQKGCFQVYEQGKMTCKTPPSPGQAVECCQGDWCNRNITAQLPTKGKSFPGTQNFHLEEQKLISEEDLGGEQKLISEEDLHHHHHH


Experiments:
[1] = biological target: T1, full length human ACVR1 (R206H) on …; assay: cell-based or functional assay
[2] = biological target: T2, human ACVR1 extracellular domain …; assay: SPR (Biacore), mAb captured, 25 C
Experimental: (§1) Equilibrium dissociation constants (KD) for ACVR1 binding to purified anti-ACVR1 monoclonal antibodies were determined using a real-time surface plasmon resonance biosensor (SPR-Biacore), Biacore 4000. All binding studies were performed in 10 mM HEPES, 150 mM NaCl, 3 mM EDTA, and 0.05% v/v surfactant Tween-20, pH 7.4 (HBS-ET) running buffer at 25° C. and 37° C. The Biacore CM5 sensor surface was first derivatized by amine coupling with a monoclonal mouse anti-human Fc antibody (GE, #BR-1008-39 or REGN2567) to capture anti-ACVR1 monoclonal antibodies. […] ACVR1 reagents were then injected over anti-human Fc captured anti-ACVR1 monoclonal antibody surface for 2.5-3 minutes at a flow rate of 30 μL/minute, while the dissociation of monoclonal antibody bound ACVR1 reagent was monitored for 10-15 minutes in HBS-ET running buffer. Kinetic association rate constant (kₐ) and dissociation rate constant (kd) were determined by fitting the real-time sensorgrams to a 1:1 binding model using Scrubber 2.0c curve-fitting software. Binding dissociation equilibrium constants (KD) and dissociative half-lives (t½) were calculated from the kinetic rate constants as: […]

[3] = biological target: T3, human ACVR1 extracellular domain …; assay: SPR (Biacore), mAb captured, 25 C
Experimental: as §1

[4] = biological target: T4, mouse ACVR1 extracellular domain …; assay: SPR (Biacore), mAb captured, 25 C
Experimental: as §1

[5] = biological target: T2, human ACVR1 extracellular domain …; assay: SPR (Biacore), mAb captured, 37 C
Experimental: as §1

[6] = biological target: T3, human ACVR1 extracellular domain …; assay: SPR (Biacore), mAb captured, 37 C
Experimental: as §1

[7] = biological target: T4, mouse ACVR1 extracellular domain …; assay: SPR (Biacore), mAb captured, 37 C
Experimental: as §1

[8] = biological target: T1, full length human ACVR1 (R206H) on …; assay: flow cytometry, 70 nM antibody, HEK293/hACVR1-R206H cells
Experimental: Cells were fixed using BD CytoFix™ (Becton Dickinson, #554655) and analyzed on either Hypercyt® or IQue® Flow Cytometers (Intellicyt®). Unstained and secondary antibody alone controls were also tested for all cell lines. The results were analyzed using ForeCyt® (IntelliCyt®) software to determine the geometric means of fluorescence for viable cells and binding ratios were calculated by normalizing the geometric mean value of the test condition by the geometric mean value of the corresponding unstained cells.

| Binder | 900 nM or 100 nM Ag Bound (RU) [2] | Kd [2] | koff [2] | kon [2] | t½ [2] | 100 nM Ag Bound (RU) [3] | Kd [3] | koff [3] | kon [3] | t½ [3] | 900 nM or 100 nM Ag Bound (RU) [4] | binding result [4] | 900 nM or 100 nM Ag Bound (RU) [5] | Kd [5] | koff [5] | kon [5] | t½ [5] | 100 nM Ag Bound (RU) [6] | 900 nM or 100 nM Ag Bound (RU) [7] | MFI - Normalized to Unstained Control [8] | also measured |
| --- | --- | --- | --- | --- | --- | --- | --- | --- | --- | --- | --- | --- | --- | --- | --- | --- | --- | --- | --- | --- | --- |
| mAb29226 (antibody, human IgG4 S228P, kappa, V domains shown) VH: EVQLVESGGGLVQPGRSLRLSCAASGFTFDDYGMHWVRQAPGKGLEWVSVISWNSATIDYADSVKGRFTISRDNAKNSLFLQMNSLRPEDTALYYCAKKNSLGWFFDYWGQGTLVTVSS VL: not shown | 57 RU | 8.27 nM | 0.000937 s⁻¹ | 113000 M⁻¹ s⁻¹ | 12 min | 188 RU | 0.767 nM | 0.000161 s⁻¹ | 210000 M⁻¹ s⁻¹ | 72 min | 2 RU | no binding (tested: 900 nM or 100 nM) | 68 RU | 25 nM | 0.00456 s⁻¹ | 182000 M⁻¹ s⁻¹ | 2.5 min | 212 RU | 2 RU | 1900 fold | % Inhibition, BRE-luc reporter, 2 nM hBMP7 [1]: 70%; IC50 [M], BRE-luc reporter, 2 nM hBMP7 [1]: 7.3e-10 M; Kd [6]: 1.53 nM; koff [6]: 0.000521 s⁻¹; kon [6]: 340000 M⁻¹ s⁻¹; t½ [6]: 22 min |
| mAb29266 (antibody, human IgG4 S228P, kappa, V domains shown) VH: QVQLVESGGGVVQPGRSLRLSCEVSGFTFSNYGMHWVRQAPGKGLEWVAVVSYDGSNKYYTDSVKGRFTISRDNSKNTLSLQMNSLRAEDTAVYYCAKDRGITGTSGGVFDIWGQGTMVTVSS VL: AIRMTQSPSSFSATTGDRVTITCRASQGISSHLAWYQQKPGKAPKFLIYVASTLQSGVPSRFSGSGSGTDFTLTISSLQSEDFATYYCQQYYSYPPTFGQGTKVEIKR | 44 RU | 109 nM | 0.00679 s⁻¹ | 62100 M⁻¹ s⁻¹ | 1.7 min | 178 RU | 5.43 nM | 0.00062 s⁻¹ | 114000 M⁻¹ s⁻¹ | 19 min | – | – | 38 RU | 191 nM | 0.0299 s⁻¹ | 156000 M⁻¹ s⁻¹ | 0.39 min | 205 RU | – | 1640 fold | % Inhibition, BRE-luc reporter, 2 nM hBMP7 [1]: 93%; IC50 [M], BRE-luc reporter, 2 nM hBMP7 [1]: 1.9e-09 M; Kd [6]: 3.88 nM; koff [6]: 0.000911 s⁻¹; kon [6]: 235000 M⁻¹ s⁻¹; t½ [6]: 13 min |
| mAb27247 (antibody, human IgG4 S228P, kappa, V domains shown, also called H4H27247) VH: EIQLVESGGDLVQPGGSLKLSCAASGFTFSDSAMHWVRQASGKGLEWVGRIRNKANTYATSYAASVKGRFTVSTDDSKTTAYLQMRYLKIEDTAIYYCTSDQFDYWGQGTLVTVSS VL: DVVMTQSPLSLSATLGQPASISCRSSQSLVYSDGITYLTWFQQRPGQSPTRLIYQVSNRDSGVPDRFNGSGSGTDFTLNISRVEAEDVGFYYCMEGTHWPWTFGQGTKVELKR | 52 RU | 10.4 nM | 0.00119 s⁻¹ | 115000 M⁻¹ s⁻¹ | 10 min | 186 RU | 0.787 nM | 0.00018 s⁻¹ | 229000 M⁻¹ s⁻¹ | 64 min | 3 RU | no binding (tested: 900 nM or 100 nM) | 67 RU | 19.3 nM | 0.00404 s⁻¹ | 209000 M⁻¹ s⁻¹ | 2.9 min | 219 RU | 4 RU | 1660 fold | Kd [6]: 1.39 nM; koff [6]: 0.000515 s⁻¹; kon [6]: 371000 M⁻¹ s⁻¹; t½ [6]: 22 min |
| mAb29233 (antibody, human IgG4 S228P, kappa, V domains shown) VH: QVQLVQSGAEVKKPGASVKVSCKASGYTFTSYGISWVRQAPGQGLEWMGWISAYNGNTIYAQKFQGRVTMTTDTSTSTAYMELRSLRSDDTAVYYCARDINWYFDLWGRGTLVTVSS VL: DIQMTQSPSSLSASVGDRVTITCRASQGIRNDLGWFQQKPGKAPKRLIYAASSLQSGVPSRFSGSGSGTEFTLTISSLQPEDFATYYCLQHNSYPWTFGQGTKVEIKR | 1 RU | – | – | – | – | 2 RU | – | – | – | – | 1 RU | no binding (tested: 900 nM or 100 nM) | 3 RU | – | – | – | – | 3 RU | 1 RU | 5 fold | binding result [2]: no binding (tested: 900 nM or 100 nM); binding result [3]: no binding (tested: 100 nM) |
| mAb29261 (antibody, human IgG4 S228P, kappa, V domains shown) VH: EVQLVESGGNLVQPGGSLRLSCAASGFTFSNYAMSWVRQAPGKGLEWVSGITGNGINTYYSVSVKGRFTISRDNSKNTVFLQMNSLRAEDTAIYYCVKERGHSWFGDWFDPWGQGTLVTVSS VL: DIQMTQSPSSLSASVGDRVTITCRASQGIRNDLGWYQQKPGKAPKRLIYAASSLQSGVPSRFSGSGSGTEFTLTISSLQPEDFATYYCLQHNSYPWTFGQGTKVEIKR | 0 RU | – | – | – | – | – | – | – | – | – | -1 RU | – | 5 RU | – | – | – | – | – | 2 RU | 2 fold | binding result [5]: no binding (tested: 900 nM or 100 nM) |
| mAb29256 (antibody, human IgG4 S228P, kappa, V domains shown, also called mAb29256P) VH: EVQLVESGGNLVQPGGSLRLSCAASGFTFSNYAMSWVRQAPGKGLEWVSGITGNGVNTYYSVSVKGRFTISRDNSKNTLFLEMNSLRAEDTAIYYCVKERGHSWFGDWFDPWGQGTLVTVSS VL: DIQMTQSPSSLSASVGDRVTITCRSSQSVISYLNWYQQKPGKAPKLLIFGASSLISGVPSRFSGSGSGTDFTLTIVSLQPEDFAVYFCQQNYLPPLTFGGGTKVEIKR | -2 RU | – | – | – | – | -1 RU | – | – | – | – | -3 RU | – | 0 RU | – | – | – | – | 3 RU | 0 RU | 3 fold | – |
